Reference: patent publication US20220033520A1

Columns and labels:
[1] = molecular target: human FcRn (FCGRT and beta-2 microglobulin) expressed on MDCK II cells (human) (UniProt P55899); assay: cell-based or functional assay
[2] = molecular target: human FcRn complex (FCGRT and beta-2 microglobulin), recombinant, purified (human) (UniProt P55899); assay: SPR, protein L capture, pH 6, kinetic
[3] = molecular target: human FcRn complex (FCGRT and beta-2 microglobulin), recombinant, purified (human) (UniProt P55899); assay: SPR, protein L capture, pH 7.4, steady state
[4] = molecular target: human FcRn complex (FCGRT and beta-2 microglobulin), recombinant, purified (human) (UniProt P55899); assay: SPR, anti-human Fab capture, pH 6, steady state
[5] = molecular target: human FcRn complex (FCGRT and beta-2 microglobulin), recombinant, purified (human) (UniProt P55899); assay: SPR, anti-human Fab capture, pH 7.4, steady state
[6] = molecular target: murine FcRn complex (Fcgrt and beta-2 microglobulin), recombinant (mouse) (UniProt Q61559); assay: binding to mFcRn at pH 6.0 (FIG. 2D)
Chain of murine FcRn complex (Fcgrt and beta-2 microglobulin), recombinant (mouse) (Q61559 22-297, one chain of several): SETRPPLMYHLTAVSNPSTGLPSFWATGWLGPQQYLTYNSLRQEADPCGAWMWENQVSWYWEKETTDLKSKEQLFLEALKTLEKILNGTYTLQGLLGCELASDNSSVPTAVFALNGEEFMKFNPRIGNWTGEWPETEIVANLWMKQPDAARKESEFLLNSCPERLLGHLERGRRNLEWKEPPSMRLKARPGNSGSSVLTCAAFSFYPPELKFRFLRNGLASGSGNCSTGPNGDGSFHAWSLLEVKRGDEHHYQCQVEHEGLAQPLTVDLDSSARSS

[7] = molecular target: murine FcRn complex (Fcgrt and beta-2 microglobulin), recombinant (mouse) (UniProt Q61559); assay: binding to mFcRn at pH 7.4 (FIG. 2D)

Substance | Transcytosis Normalized to WT (normalized to WT) [1] | Kd [2] [nM] | koff [2] [s⁻¹] | kon [2] [M⁻¹ s⁻¹] | Kd [3] [nM] | Kd [4] [nM] | Kd [5] [nM] | fold improvement of binding over wild-type hIgG1 [6] [fold] | fold improvement of binding over wild-type hIgG1 [7] [fold]
anti-BACE1 hIgG1 antibody, Fc modification D1 (M252Y/N434Y) | 79 | 28.7 | 0.0264 | 919000 | 963 | 13 | 1010 |  | 
anti-BACE1 hIgG4 antibody, Fc modification Q3-IgG4 (M252Y/T307Q/N434Y/Y436I) | 87 | 3.87 |  |  |  | 4.8 | 124 |  | 
anti-BACE1 hIgG1 antibody, Fc modification Q7 (M252Y/Q311A/N434Y/Y436I) | 108 | 6 | 0.00529 | 920000 | 295 | 7.3 | 269 |  | 
anti-BACE1 hIgG1 antibody, Fc modification Q95 (M252Y/T307Q/Q311A/N434Y) | 100 | 7.35 | 0.00608 | 828000 | 228 | 6.9 | 240 |  | 
anti-Abeta hIgG1 antibody, Fc modification Q7 (M252Y/Q311A/N434Y/Y436I) |  |  |  |  |  | 8.2 | 292 |  | 
anti-BACE1 hIgG1 antibody, Fc modification Q3 (M252Y/T307Q/N434Y/Y436I) | 137 |  |  |  | 202 | 6.5 | 170 |  | 

Other lines, results leading:

Transcytosis Normalized to WT (normalized to WT) [1] | Kd [2] [nM] | koff [2] [s⁻¹] | kon [2] [M⁻¹ s⁻¹] | Kd [3] [nM] | Kd [4] [nM] | Kd [5] [nM] | fold improvement of binding over wild-type hIgG1 [6] [fold] | fold improvement of binding over wild-type hIgG1 [7] [fold] | Substance
82 | 5.22 |  |  | 114 | 5.2 | 120 |  |  | anti-BACE1 hIgG4 antibody, Fc modification Q1-IgG4 (M252Y/T307Q/Q311I/N434Y)
155 | 7.72 | 0.00494 | 639000 | 380 | 8.9 | 194 |  |  | anti-BACE1 hIgG1 antibody, Fc modification Q6 (M252Y/M428L/N434Y/Y436I)
95 | 13.4 | 0.0135 | 1.01e+06 | 322 | 7.4 | 230 |  |  | anti-BACE1 hIgG4 antibody, Fc modification Q5-IgG4 (M252Y/Q311I/N434Y/Y436I)
155 | 11.1 | 0.00648 | 582000 | 663 | 8.7 | 211 |  |  | anti-BACE1 hIgG1 antibody, Fc modification Q2 (M252Y/T307Q/M428L/N434Y)
 |  |  |  |  | 10.1 | 521 |  |  | anti-Abeta hIgG1 antibody, Fc modification T94 (M252Y/N286E/N434Y)
1.9 | 154 | 0.0635 | 414000 |  |  |  | 10 | 10 | hIgG1 antibody comprising modified Fc M252Y/S254T/T256E (YTE)
137 | 14 |  |  |  | 9.1 | 307 |  |  | anti-BACE1 hIgG1 antibody, Fc modification T3 (M252Y/Q311I/N434Y)
132 | 4.69 | 0.00349 | 743000 | 197 | 6.6 | 157 |  |  | anti-BACE1 hIgG1 antibody, Fc modification Q1 (M252Y/T307Q/Q311I/N434Y)
 |  |  |  |  | 12.8 | 667 |  |  | anti-Abeta hIgG1 antibody, Fc modification Q4 (M252Y/Q311I/M428L/N434Y)
